Source: patent publication US20200297760A1 (JUNO THERAPEUTICS, published 2020)

B1: FWVKRGRKK (peptide)
peptide: FWVKRGRKK
notes: synthetic 9-mer of the CD28-4-1BB junction; mutation: none
B2: FWVKRGAKK (peptide)
peptide: FWVKRGAKK
notes: synthetic 9-mer variant; the entry already carries the change
B3: FWVQRGAKK (peptide)
peptide: FWVQRGAKK
notes: synthetic 9-mer variant; the entry already carries the changes
B4: FWVSRGRKK (peptide)
peptide: FWVSRGRKK
notes: as for B2
B5: FWVQRGRKK (peptide)
peptide: FWVQRGRKK
notes: as for B2
B6: FWVKRGNKK (peptide)
peptide: FWVKRGNKK
notes: as for B2
B7: FWVQRGSKK (peptide)
peptide: FWVQRGSKK
notes: as for B3
B8: FWVKRGSKK (peptide)
peptide: FWVKRGSKK
notes: as for B2
B9: FWVHRGRKK (peptide)
peptide: FWVHRGRKK
notes: as for B2
B10: FWVKRGHKK (peptide)
peptide: FWVKRGHKK
notes: as for B2
B11: FWVQRGNKK (peptide)
peptide: FWVQRGNKK
notes: as for B3
B12: FWVKRGLKK (peptide)
peptide: FWVKRGLKK
notes: as for B2
B13: FWVARGRKK (peptide)
peptide: FWVARGRKK
notes: as for B2
B14: FWVLRGRKK (peptide)
peptide: FWVLRGRKK
notes: as for B2
B15: IIFWVKRGH (peptide)
peptide: IIFWVKRGH
notes: as for B2
B16: IIFWVQRGS (peptide)
peptide: IIFWVQRGS
notes: as for B3
B17: IIFWVQRGN (peptide)
peptide: IIFWVQRGN
notes: as for B3
B18: IFWVKRGRK (peptide)
peptide: IFWVKRGRK
notes: as for B1
B19: IFWVQRGSK (peptide)
peptide: IFWVQRGSK
notes: as for B3
B20: IFWVLRGRK (peptide)
peptide: IFWVLRGRK
notes: as for B2

Legend:
[1] = target: HLA-A*11:01 (recombinant MHC class I molecule) (human); assay: REVEAL MHC-peptide binding assay, recombinant HLA-A*11:01
Protocol: (§1) Specifically, assessment was of a series of overlapping 9-mer peptides derived from the sequence […] (set forth in SEQ ID NO: 7), which contains a portion of the CD28 transmembrane domain and 4-1BB costimulatory domain spanning the junction between the domains (bond joining the two amino acids noted in underline). In addition, a series of overlapping 9-mer peptides of each of a number of different variants of this portion also were assessed, each variant containing a mutation or mutations in this region as described in Example 2.
(§2) The various 9-mer overlapping peptides were synthesized and their purity tested by MALDI-TOF Mass Spectrometry.

[2] = target: HLA-B*08:01 (recombinant MHC class I molecule) (human); assay: REVEAL MHC-peptide binding assay, recombinant HLA-B*08:01
Protocol: as §1, §2

HLA-A*02:01 = target: T1, HLA-A*02:01 (human); assay: REVEAL MHC-peptide binding assay, recombinant HLA
T1 construct: recombinant MHC class I molecule incubated with the synthetic peptide (REVEAL, ProImmune)
Protocol: as §1, §2

HLA-A*03:01 = target: T2, HLA-A*03:01 (human); assay: REVEAL MHC-peptide binding assay, recombinant HLA
T2 construct: recombinant MHC class I molecule incubated with the synthetic peptide (REVEAL, ProImmune)
Protocol: as §1, §2

Binder	In Vitro Score [1]	In Vitro Score [2]	In Vitro Score (HLA-A*02:01)	In Vitro Score (HLA-A*03:01)
WVKRGRKKL [Synthetic peptide WVKRGRKKL]	4.8 score, % of positive control peptide	28.5 score, % of positive control peptide		
WVHRGRKKL [Synthetic peptide WVHRGRKKL]	5.6 score, % of positive control peptide	19.2 score, % of positive control peptide		
WVKRGLKKL [Synthetic peptide WVKRGLKKL]	22.1 score, % of positive control peptide	65.7 score, % of positive control peptide		
WVQRGSKKL [Synthetic peptide WVQRGSKKL]	5.9 score, % of positive control peptide			
WVKRGRKKS [Synthetic peptide WVKRGRKKS]	6.7 score, % of positive control peptide	4.3 score, % of positive control peptide		
WVLRGRKKL [Synthetic peptide WVLRGRKKL]	3.2 score, % of positive control peptide	4 score, % of positive control peptide		
WVSRGRKKL [Synthetic peptide WVSRGRKKL]	4.4 score, % of positive control peptide	6.2 score, % of positive control peptide		
WVQRGAKKL [Synthetic peptide WVQRGAKKL]	3.8 score, % of positive control peptide	11.4 score, % of positive control peptide		
FWVKRGRKK [Synthetic peptide FWVKRGRKK]	6.5 score, % of positive control peptide	0 score, % of positive control peptide		
FWVKRGHKK [Synthetic peptide FWVKRGHKK]	27.6 score, % of positive control peptide	0.4 score, % of positive control peptide		
FWVKRGNKK [Synthetic peptide FWVKRGNKK]	7.3 score, % of positive control peptide	0.1 score, % of positive control peptide		
FWVQRGAKK [Synthetic peptide FWVQRGAKK]	18.3 score, % of positive control peptide	0 score, % of positive control peptide		
FWVARGRKK [Synthetic peptide FWVARGRKK]		0 score, % of positive control peptide		
FWVKRGAKK [Synthetic peptide FWVKRGAKK]	13.2 score, % of positive control peptide	0.3 score, % of positive control peptide		
FWVQRGNKK [Synthetic peptide FWVQRGNKK]	5.9 score, % of positive control peptide	0 score, % of positive control peptide		
FWVSRGRKK [Synthetic peptide FWVSRGRKK]	6.3 score, % of positive control peptide	0 score, % of positive control peptide		
FWVHRGRKK [Synthetic peptide FWVHRGRKK]	5.6 score, % of positive control peptide	0 score, % of positive control peptide		
FWVKRGSKK [Synthetic peptide FWVKRGSKK]	5.6 score, % of positive control peptide	0.1 score, % of positive control peptide		
FWVQRGRKK [Synthetic peptide FWVQRGRKK]	5.7 score, % of positive control peptide	1.9 score, % of positive control peptide		
FWVLRGRKK [Synthetic peptide FWVLRGRKK]	5 score, % of positive control peptide	0 score, % of positive control peptide		

Binder	In Vitro Score [1]	In Vitro Score [2]	In Vitro Score (HLA-A*02:01)	In Vitro Score (HLA-A*03:01)
FWVQRGSKK [Synthetic peptide FWVQRGSKK]	6.8 score, % of positive control peptide	0 score, % of positive control peptide		
FWVKRGLKK [Synthetic peptide FWVKRGLKK]	25.3 score, % of positive control peptide	6.3 score, % of positive control peptide		
B1			3.5 % of positive control peptide	2.2 % of positive control peptide
B2			4.3 % of positive control peptide	4.7 % of positive control peptide
B3			2.2 % of positive control peptide	2.7 % of positive control peptide
B4			1.5 % of positive control peptide	2.9 % of positive control peptide
B5			5.2 % of positive control peptide	6.4 % of positive control peptide
B6				3.6 % of positive control peptide
B7			0.8 % of positive control peptide	1.9 % of positive control peptide
B8			1.9 % of positive control peptide	5.9 % of positive control peptide
B9			1.6 % of positive control peptide	3.6 % of positive control peptide
B10			2.6 % of positive control peptide	4.1 % of positive control peptide
B11			3.1 % of positive control peptide	1.3 % of positive control peptide
B12				2.7 % of positive control peptide
B13			13.5 % of positive control peptide	5 % of positive control peptide
B14			3.3 % of positive control peptide	0.4 % of positive control peptide
B15			5.3 % of positive control peptide	26.6 % of positive control peptide
B16			22.4 % of positive control peptide	4.5 % of positive control peptide
B17			13 % of positive control peptide	3.6 % of positive control peptide
AFIIFWVKR [Synthetic peptide AFIIFWVKR]	25.9 score, % of positive control peptide	1.9 score, % of positive control peptide		

Binder	In Vitro Score [1]	In Vitro Score [2]	In Vitro Score (HLA-A*02:01)	In Vitro Score (HLA-A*03:01)
AFIIFWVQR [Synthetic peptide AFIIFWVQR]	15 score, % of positive control peptide	0 score, % of positive control peptide		
AFIIFWVLR [Synthetic peptide AFIIFWVLR]	17.2 score, % of positive control peptide	0.2 score, % of positive control peptide		
B18			4.5 % of positive control peptide	20.5 % of positive control peptide
B19			33.5 % of positive control peptide	20.3 % of positive control peptide
B20			2.9 % of positive control peptide	19.5 % of positive control peptide
VAFIIFWVA [Synthetic peptide VAFIIFWVA]	2.8 score, % of positive control peptide	0 score, % of positive control peptide		
VAFIIFWVH [Synthetic peptide VAFIIFWVH]	12.3 score, % of positive control peptide	0 score, % of positive control peptide		
VAFIIFWVQ [Synthetic peptide VAFIIFWVQ]	3.9 score, % of positive control peptide	0.2 score, % of positive control peptide		
VAFIIFWVL [Synthetic peptide VAFIIFWVL]	0.2 score, % of positive control peptide	0 score, % of positive control peptide		
FIIFWVKRG [Synthetic peptide FIIFWVKRG]	0.4 score, % of positive control peptide	0.1 score, % of positive control peptide		
FIIFWVSRG [Synthetic peptide FIIFWVSRG]	5.1 score, % of positive control peptide	0.4 score, % of positive control peptide		
FIIFWVQRG [Synthetic peptide FIIFWVQRG]	1.5 score, % of positive control peptide	0.6 score, % of positive control peptide		
FIIFWVLRG [Synthetic peptide FIIFWVLRG]	2.4 score, % of positive control peptide	0.2 score, % of positive control peptide		
IIFWVKRGH [Synthetic peptide IIFWVKRGH]	19.5 score, % of positive control peptide	0.1 score, % of positive control peptide		
IIFWVQRGS [Synthetic peptide IIFWVQRGS]	16.9 score, % of positive control peptide	0.1 score, % of positive control peptide		
IIFWVQRGN [Synthetic peptide IIFWVQRGN]	29 score, % of positive control peptide	0 score, % of positive control peptide		
IFWVKRGRK [Synthetic peptide IFWVKRGRK]	29.3 score, % of positive control peptide	0.4 score, % of positive control peptide		
IFWVLRGRK [Synthetic peptide IFWVLRGRK]	29.3 score, % of positive control peptide	0 score, % of positive control peptide		
IFWVQRGSK [Synthetic peptide IFWVQRGSK]	103 score, % of positive control peptide	0 score, % of positive control peptide		
